Measurements: article PMC6053351, “Structural and biochemical insights into human zinc finger protein AEBP2 reveals interactions with RBBP4” (Protein & Cell, 2017)
Values belong to the binder of their own block, whether it stands above or below them.

Tests used:
Conditions in all cases: both partners purified
RBBP4 Glu231Ala = biological target: T1, RBBP4 Glu231Ala (UniProt Q09028 1-425, Glu231Ala); test: ITC; AEBP2_(379–390) peptide titrated into RBBP4; one-site binding model, Origin 7
T1 construct: RBBP4 with the mutation Glu231Ala; parent is the wild-type RBBP4 of m1; also called RBBP4 E231A
T1 sequence (Q09028 whole entry E231A): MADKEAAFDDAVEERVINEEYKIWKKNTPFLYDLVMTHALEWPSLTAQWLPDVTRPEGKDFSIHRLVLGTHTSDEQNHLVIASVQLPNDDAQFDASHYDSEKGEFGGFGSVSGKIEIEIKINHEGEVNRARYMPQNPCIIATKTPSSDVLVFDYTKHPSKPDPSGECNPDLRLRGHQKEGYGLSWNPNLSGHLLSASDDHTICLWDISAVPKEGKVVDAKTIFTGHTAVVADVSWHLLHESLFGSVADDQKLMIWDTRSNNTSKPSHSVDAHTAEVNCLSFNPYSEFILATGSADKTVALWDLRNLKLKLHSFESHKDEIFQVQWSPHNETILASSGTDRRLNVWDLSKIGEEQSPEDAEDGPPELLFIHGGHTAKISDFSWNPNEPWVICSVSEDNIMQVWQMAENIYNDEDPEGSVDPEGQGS

[1] = biological target: T2, RBBP4, full-length, wild type (UniProt Q09028 1-425); test: as above
T2 construct: RBBP4 (also known as RbAp48), full-length; also called RbAp48; apo RBBP4
T2 sequence (Q09028 whole entry): as the sequence (Q09028 whole entry E231A) above, with A231E counted along it

[2] = biological target: T3, RBBP4 Glu126Ala/Asn128Ala/Glu179Ala (UniProt Q09028 1-425, Glu126Ala | Asn128Ala | Glu179Ala); test: as above
T3 construct: RBBP4 with the mutations Glu126Ala/Asn128Ala/Glu179Ala; parent is the wild-type RBBP4 of m1; also called RBBP4 E126A/N128A/E179A
T3 sequence (Q09028 whole entry E126A/N128A/E179A): as the sequence (Q09028 whole entry E231A) above, with E126A, N128A, E179A, A231E counted along it

[3] = biological target: T2, RBBP4, full-length, wild type; test: SEC; gel filtration on a Superdex 200 10/300 GL column; RBBP4 mixed with excess AEBP2 ZF-RRK, against apo RBBP4 and apo ZF-RRK; SDS-PAGE of the peaks

fold reduction of binding affinity against wild-type RBBP4 (RBBP4 Glu231Ala): 5 fold
Kd [1]: 7.6 ± 0.6 µM
dH [1]: -15.9 ± 0.395 kcal/mol
fold reduction of binding affinity against wild-type RBBP4 [2]: 7 fold
B1: AEBP2_(379–390) peptide (RRK-rich motif, residues Lys379–Ser390) (peptide, UniProt Q6ZN18-1 379-390, looked up)
peptide: KRRKLKNKRRRS
notes: AEBP2, human, RRK-rich motif, residues Lys379–Ser390 of Uniprot entry Q6ZN18-1; source: synthetic peptide

fold reduction of binding affinity against the wild-type peptide [1]: ~20 fold
B2: AEBP2_(379–390) peptide with mutations Arg380Ala/Lys382Ala (peptide, UniProt Q6ZN18-1 379-390, looked up)
peptide: KARALKNKRRRS
notes: AEBP2, human, residues Lys379–Ser390 of Uniprot entry Q6ZN18-1 with Arg380Ala/Lys382Ala

binding result [3]: binds
B3: AEBP2 ZF-RRK (ZF1–3 and the RRK-rich motif, residues Asn258–Asp396) (domain or fragment, human, UniProt Q6ZN18-1 258-396, looked up)
chain: NIAYNCCWDQCQACFNSSPDLADHIRSIHVDGQRGGVFVCLWKGCKVYNTPSTSQSWLQRHMLTHSGDKPFKCVVGGCNASFASQGGLARHVPTHFSQQNSSKVSSQPKAKEESPSKAGMNKRRKLKNKRRRSLPRPHD
notes: AEBP2, human, residues Asn258–Asp396 (numbering as for Uniprot entry Q6ZN18-1); also called apo AEBP2 ZF-RRK; source: recombinant protein
